# B1: RCP-21: comparative polypeptide, SEQ ID NO: 26; positions 1-459, having the sequence of human vitronectin (protein)
# chain: GPLGDQESCKGRCTEGFNVDKKCQCDELCSYYQSCCTDYTAECKPQVTRGDVFTMPEDEYTVYDDGEEKNNATVHEQVGGPSLTSDLQAQSKGNPEQTPVLKPEEEAPAPEVGASKPEGIDSRPETLHPGRPQPPAEEELCSGKPFDAFTDLKNGSLFAFRGQYCYELDEKAVRPGYPKLIRDVWGIEGPIDAAFTRINCQGKTYLFKGSQYWRFEDGVLDPDYPRNISDGFDGIPDNVDAALALPAHSYSGRERVYFFKGKQYWEYQFQHQPSQEECEGSSLSAVFEHFAMMQRDSWEDIFELLFWGRTSAGTRQPQFISRDWHGVPGQVDAAMAGRIYISGMAPRPSLAKKQRFRHRNRKGYRSQRGHSRGRNQNSRRPSRATWLSLFSSEESNLGANNYDDYRMDWLVPATCEPIQSVFFFSGDKYYRVNLRTRRVDTVDPPYPRSIAQYWLGCPAPGHL
# modifications: Vitronectin-derived Recombinant Protein (RCP-21)
# Legend:
# [1] = system: human iPS cells ("Tic"); test: Cell adhesiveness evaluation 1 (ALP activity of adhesive iPS cells); format: cell-based; details: added amount 200 pmol/cm^2; 30,000 cells/well, 24 hours; natural vitronectin (sample 15) = 100%; n=3
# Method in brief: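 Peptides and controls were adsorbed onto wells for 2 h at 37 °C. Single-cell human iPS cells in TeSR2 with 10 μM Y-27362 were seeded at 30,000 cells/well. After 24 h, non-adherent cells were washed off and adherent cells fixed; cell number came from ALP activity via a calibration curve. Adhesion is expressed relative to natural vitronectin (100%), n=3.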
# [2] = system: iPS cells; test: Evaluation of maintenance of undifferentiated state (reference examples); format: cell-based, human
# Experimental: iPS cells collected in the same manner as in <Cell adhesiveness evaluation 1> were suspended in TeSR2. The iPS cells were seeded into 6-well plate (Tissue culture-treated, Falcon), onto which each of the samples 1, 2, 5, 6, and 7 used in <Cell adhesiveness evaluation 1> was adsorbed in the same manner as in <Cell adhesiveness evaluation 1>, and cultured in a CO2 incubator at 37° C. Except for the day after the seeding, the medium was replaced every day. In the same method as described above, the cells were subcultured every six days.
# After being cultured for 1 month under the conditions described above, the cells were immobilized using 4% paraformaldehyde and treated with 1% Triton-X/PBS so as to enhance the membrane permeability. After the cells were subjected to a blocking treatment using an Image IT Signal Enhancer (Invitrogen), an anti-human NANOG antibody (AF 1997, R&D Systems, Inc.), an Alexa Fluor 555 binding rabbit anti-goat IgG antibody (Invitrogen), and DAPI (4′,6-diamidino-2-phenylindole, Dojindo Molecular Technologies, Inc.) were added thereto for labeling, and the cells were imaged using a fluorescence microscope.
# FIGS. 3A and 4A show the iPS cells cultured on RCP-1; FIGS. 3B and 4B show the iPS cells cultured on RCP-11; FIGS. 3C and 4C show the iPS cells cultured on natural human vitronectin; FIGS. 3D and 4D show the iPS cells cultured on rLaminin-5; and FIGS. 3E and 4E show the iPS cells cultured on rLaminin-511. The scale bar in the images indicates […]. In FIGS. 3A to 3E, the images on the left side are full images of the colony, and the images on the right side are magnified images. In FIGS. 4A to 4E, the images on the left side are images of the cells stained with DAPI, and the images on the right side are images of the cells stained with an anti-NANOG antibody. The scale bar in FIGS. 3A to 4E indicates 200 μm.
# [3] = system: iPS cells; test: Growth evaluation, growth curves over 8 days; format: cell-based, human
# Experimental: The iPS cells collected in the same manner as in <Cell adhesiveness evaluation 1> were seeded into a 96-well plate, onto which RCP-1, RCP-21, and natural human vitronectin were adsorbed, at a ratio of 250 cells/well and cultured for 8 days in a 5% CO2 incubator at 37° C. The number of adhesive cells after different days of culture was measured in the same manner as in <Cell adhesiveness evaluation 1>, thereby obtaining growth curves. […] In FIG. 2, a black rhombus indicates a case using RCP-1, and a black square indicates a case using RCP-21.
# From the increase and decrease in the obtained number of cells, the doubling time was calculated. As a result, it was confirmed that it takes 46.4±2.1 hours for the number of cells to be doubled in a case where RCP-1 is used, and 67.7±2.1 hours in a case where RCP-21 is used.
molecule,measurement,setting,value
B1,Cell adhesion rate (%),[1],93.5 ± 7.9%
same,form of iPS cell colony,"[2]; TeSR2, subcultured every six days, FIGS. 3A to 3E",form specific to undifferentiated cells
same,NANOG expression,"[2]; cultured for 1 month in TeSR2, anti-NANOG staining, FIGS. 4A to 4E",strongly expressed NANOG in the entirety of the colony
same,doubling time,"[3]; 250 cells/well, cultured for 8 days",67.7 ± 2.1 h
same,number of cells on Day 8 of culture as fraction of the number with RCP-1,[3]; FIG. 2,about ⅓

# — US10487307B2, “Culture method for pluripotent stem cells” (FUJIFILM CORPORATION, priority 2013, dated 2019)
